Reference: patent US20250332297A1, “DLL3-SPECIFIC BINDING CONSTRUCTS AND THEIR USE IN RADIOTHERAPY” (MOLECULAR PARTNERS AG, priority 2024, published 2025)
Positions count from the first letter of the chain named.

T1: NCI-H82 cells expressing human DLL3 (Homo sapiens, UniProt Q9NYJ7)
T1 construct: a human lung carcinoma cell line which endogenously expresses DLL3 on the surface; host or cells: NCI-H82
T1 sequence (Q9NYJ7 27-618): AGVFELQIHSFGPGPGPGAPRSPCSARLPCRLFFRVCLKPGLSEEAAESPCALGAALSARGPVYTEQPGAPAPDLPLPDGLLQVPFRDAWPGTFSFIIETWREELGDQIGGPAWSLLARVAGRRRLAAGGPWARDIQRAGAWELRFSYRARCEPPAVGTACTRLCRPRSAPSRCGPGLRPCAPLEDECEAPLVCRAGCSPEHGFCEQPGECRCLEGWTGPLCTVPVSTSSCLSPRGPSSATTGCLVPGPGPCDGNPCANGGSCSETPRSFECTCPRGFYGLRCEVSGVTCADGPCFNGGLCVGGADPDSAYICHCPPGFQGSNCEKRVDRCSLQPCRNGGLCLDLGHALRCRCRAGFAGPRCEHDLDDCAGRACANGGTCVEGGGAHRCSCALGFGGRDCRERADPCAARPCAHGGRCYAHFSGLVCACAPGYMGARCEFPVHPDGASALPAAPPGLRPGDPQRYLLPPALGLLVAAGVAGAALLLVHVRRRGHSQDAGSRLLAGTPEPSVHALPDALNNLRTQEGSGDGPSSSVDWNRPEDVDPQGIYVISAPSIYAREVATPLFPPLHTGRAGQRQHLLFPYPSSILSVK

T2: human DLL3 expressed on HEK293T-huDLL3 cells (Homo sapiens, UniProt Q9NYJ7)
T2 construct: expressed in transfected cells; host or cells: HEK293T-hDLL3
T2 sequence (Q9NYJ7 27-618): T1 sequence (Q9NYJ7 27-618)

B1: MAM279: Two domain (2D) ankyrin repeat protein: serum albumin-specific domain (SEQ ID NO: 7), PT linker, DLL3-specific domain of MAM093 (protein)
chain: DLGKKLLEAARAGQDDEVRELLKAGADVNAKDYFSHTPLHLAARNGHLKIVEVLLKAGADVNAKDFAGKTPLHLAADAGHLEIVEVLLKAGADVNAQDIFGKTPADIAADAGHEDIAEVLQKAAGSPTPTPTTPTPTPTTPTPTPTGSDLGKKLLAAAAQGQDDEVRELLKAGANVNAKDLFGYTPLHLAAWRGHLEIVEVLLKAGADVNAKDAAGETPLHLAAWFGHLEIVEVLLKAGADVNAQDLQGKTPADLAAKEGHEDIAEVLQKAA
modifications: Ankyrin repeat protein (MAM279)
B2: MAM283: Two domain (2D) ankyrin repeat protein: serum albumin-specific domain (SEQ ID NO: 7), PT linker, DLL3-specific domain (SEQ ID NO: 3) (protein)
chain: B1 chain with Q160D, K171Q, N175D, K204E, K237E, L247V, K270Q
modifications: Ankyrin repeat protein (MAM283)
B3: MAM282: Two domain (2D) ankyrin repeat protein: serum albumin-specific domain (SEQ ID NO: 7), PT linker, DLL3-specific domain (SEQ ID NO: 2) (protein)
chain: DLGKKLLEAARAGQDDEVRELLKAGADVNAKDYFSHTPLHLAARNGHLKIVEVLLKAGADVNAKDFAGKTPLHLAADAGHLEIVEVLLKAGADVNAQDIFGKTPADIAADAGHEDIAEVLQKAAGSPTPTPTTPTPTPTTPTPTPTGSDLGKKLLAAAREGQDDEVRELLKAGADVNAKDIWGQTPLHIAAWFGHLEIVEVLLKAGADVNAKDQTGHTPLHLAAKFGHLEIVEVLLKAGADVNAQDLLGRTPADLAAEEGHEDIAEVLQKAA
modifications: Ankyrin repeat protein (MAM282)
B4: MAM160: Two domain (2D) ankyrin repeat protein: serum albumin-specific domain (SEQ ID NO: 7), PT linker, DLL3-specific domain MAM120 (protein)
chain: DLGKKLLEAARAGQDDEVRELLKAGADVNAKDYFSHTPLHLAARNGHLKIVEVLLKAGADVNAKDFAGKTPLHLAADAGHLEIVEVLLKAGADVNAQDIFGKTPADIAADAGHEDIAEVLQKAAGSPTPTPTTPTPTPTTPTPTPTGSDLGTKLLSAAADGQDDEVRELLQAGADVNAKDLFGYTPLHLAAWRGHLEIVEVLLEAGADVNAKDAAGLTPLHLAAWFGHLEIVEVLLEAGADVNAQDVQGVTPADLAAKEGHEDIAEVLQQAA
modifications: Ankyrin repeat protein (MAM160)
B5: Rova: Rova antibody, DLL3-binding benchmark antibody used as positive control and comparison (antibody, chains of the INN, looked up, V domains shown)
VH: QVQLVQSGAEVKKPGASVKVSCKASGYTFTNYGMNWVRQAPGQGLEWMGWINTYTGEPTYADDFKGRVTMTTDTSTSTAYMELRSLRSDDTAVYYCARIGDSSPSDYWGQGTLVTVSS
VL: EIVMTQSPATLSVSPGERATLSCKASQSVSNDVVWYQQKPGQAPRLLIYYASNRYTGIPARFSGSGSGTEFTLTISSLQSEDFAVYYCQQDYTSPWTFGQGTKLEIK

tested on: not listed separately; experiment: Thermal stability by Circular Dichroism (CD) spectroscopy; type: physicochemical; conditions: CD at 222 nm, 20° C. to 90° C., 2 μM in PBS pH7.4; DARPins with C-terminal Cysteine-containing tag (SEQ ID NOs: 15, 16, 18)
Description: Labelling of proteins conjugated to a chelator with a radionuclide may require harsh conditions, including high temperatures. The thermal stability and the propensity to unfold/refold of 2D DARPins MAM279, MAM283 and MAM282 were assessed using Circular Dichroism (CD) spectroscopy.
Samples of the DARPins were diluted to 2 μM in PBS, pH7.4. The assessment was done using a Jasco J-815 spectrophotometer. The Tm (melting temperature) of the selected proteins was determined by CD as a parameter for thermal stability. In brief, the ellipticity was recorded at […] and a temperature range from 20° C. to 90° C. was applied followed by reverse scan to record the refolding behavior. The Tm of the selected ankyrin repeat protein constructs is the midpoint of the protein unfolding. Spectra from 190-250 nm were recorded before and after the temperature scan.

Molecule | melting temperature (Tm)
B1 | above 85 °C
B2 | about 82 °C
B3 | above 90 °C

molecular target: human serum albumin (Homo sapiens, UniProt P02768); experiment: SPR binding to human serum albumin (Example 1); parameters: purchased CSL; conditions: immobilized HSA, 1:1 Langmuir, Table 2
Description: Similarly, a SPR assay was used to determine the binding kinetics to human or mouse serum albumin. […] All analytes (3-fold dilution ranging from 1000-12.35 nM) were injected in succession for 240 s (25 μl/min) and dissociation was recorded for 600 s (25 μl/min). […] The obtained SPR traces were used to determine the ankyrin repeat protein-serum albumin interaction parameters, summarized in Table 2.

Molecule | Kd | Koff HSA | Kon HSA
B1 | 75 nM | 0.00923 s⁻¹ | 123000 M⁻¹ s⁻¹
B2 | 103 nM | 0.00924 s⁻¹ | 89500 M⁻¹ s⁻¹
B4 | 95.9 nM | 0.0105 s⁻¹ | 110000 M⁻¹ s⁻¹
B3 | 74.3 nM | 0.00889 s⁻¹ | 120000 M⁻¹ s⁻¹

molecular target: T1, NCI-H82 cells expressing human DLL3; experiment: Cell binding titration on NCI-H82 cells; type: cell-based; conditions: absence of human serum albumin, read-out: Cell binding EC50, w/o HSA
Description: Furthermore, cell binding titration assays were also performed with selected two domain (2D) designed ankyrin repeat proteins to determine binding to human cells expressing DLL3 endogenously, in absence and presence of human serum albumin. For this purpose, NCI-H82 cells were used, a human lung carcinoma cell line which endogenously expresses DLL3 on the surface. […] A non-binding DARPin comprising SEQ ID NO: 22 was used as a negative control.
In brief, 1×10^5 cells/well were resuspended in 100 μl DARPin dilution (500 nM, 1:5 serial diluted in PBS, 2% FBS) and incubated for 1 h at 4° C. This step was performed in absence and presence of 10 μM Human Serum Albumine (CSL Behring #150570). Cells were washed twice with PBS, 2% FBS and resuspended in 100 μl anti-DARPin antibody (rabbit anti-DARPin 1.4.8) and LIVE/DEAD cell stain (1:1000, Biolegend #423106). After incubation and washing, cells were incubated with detection antibody for 30 minutes (Goat […] IgG (H+L), AF647, Thermo Fisher #21445). Cells were fixed (Paraformaldehyde Solution, TCL119, LucernaChem) and acquired at Attune N×T (Thermo Life Technologies). Raw fcs files were exported and analyzed using FlowJo software. MFI values of live AF647-positive cells were exported from FlowJo and plotted using GraphPad Prism software.

EC50 | Molecule
2.5 nM | B1
5.4 nM | B2
2.6 nM | B3

same assay, conditions: presence of 10 μM human serum albumin, read-out: Cell binding EC50, with HSA

EC50 | Molecule
2.1 nM | B1
8.1 nM | B2
2.6 nM | B3

molecular target: T2, human DLL3 expressed on HEK293T-huDLL3 cells; experiment: Cell binding titration on HEK293T-hDLL3 cells; type: cell-based; conditions: absence of human serum albumin, read-out: Cell binding EC50, w/o HSA
Description: Cell binding titration assays were performed for selected His-tagged single domain (1 D) and two domain (2D) designed ankyrin repeat proteins to determine binding to human DLL3 expressed on HEK293T-huDLL3 cells in absence and presence of human serum albumin. Controls included Rova antibody as a positive control and a non-binding DARPin comprising SEQ ID NO: 21 as a negative control. HEK293T-hDLL3 cells are HEK293T cells that were stably transfected to express human DLL3 on their surface.
In brief, 1×10^5 cells/well were resuspended in 100 μl DARPin dilution (500 nM, 1:5 serial diluted) and incubated for 1 h at 4° C. Cells were washed twice with PBS and resuspended in 100 μl anti-DARPin antibody (rabbit anti-DARPin 1.4.8) and LIVE/DEAD fixable cell stain (1:1000, Thermo Fisher #L34957). This step was performed in absence and presence of […] Human Serum Albumin (CSL Behring #150570). After incubation and washing, cells were incubated with detection antibody for 30 minutes (Goat anti-Human IgG (H+L), AF647, Thermo Fisher #21445). Cells were fixed (Paraformaldehyde Solution, LucernaChem) and acquired at Attune N×T (Thermo Life Technologies). Raw fcs files were exported and analyzed using FlowJo software. MFI values of live AF647-positive cells were exported from FlowJo and plotted using GraphPad Prism software. None of the tested ankyrin repeat proteins show binding to the HEK293T wildtype cells.

EC50 | Molecule
14.9 nM | B1
22.1 nM | B2
0.1 nM | B5
18.9 nM | B4
21.2 nM | B3
